This note sets out measurements from publication PMC8932645.

Test [1] concerns the target Xenopus laevis PTCH1 (residues 1–1178) (Xenopus laevis). Kind of test: native gel or EMSA.
Test [2] addresses GAS1 ectodomain (GAS1-Ecto), FLAG-HaloTag7-tagged (human) (UniProt P54826). Briefly: ITC.

No end group written: not given here. *: point of attachment. Palmitoyl = CCCCCCCCCCCCCCCC(=O)*

UniProt P54826, sequence (P54826 40-317): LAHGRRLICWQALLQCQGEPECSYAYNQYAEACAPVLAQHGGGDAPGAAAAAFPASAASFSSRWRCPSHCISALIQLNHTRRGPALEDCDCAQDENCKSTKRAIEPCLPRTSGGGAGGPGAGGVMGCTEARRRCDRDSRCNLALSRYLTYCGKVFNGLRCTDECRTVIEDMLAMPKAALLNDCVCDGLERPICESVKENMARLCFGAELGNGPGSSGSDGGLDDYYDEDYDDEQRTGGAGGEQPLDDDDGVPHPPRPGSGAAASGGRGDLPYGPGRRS

As to “dually lipidated Sonic hedgehog (SHH) (from UniProt Q15465 24-197) (ligand)”, the percent of SHH transferred from GAS1 to an equimolar amount of PTCH1 in test [1] was over 50%.

On to octanoylated SHH effector peptide (EP), for which the Kd – broadly, the concentration at which binding is half-saturated – in test [2] is 34.6 µM.

For “palmitoylated SHH effector peptide (EP, SHH residues 24–45)”, in test [2], the Kd is 3.84 µM.

Consider Palmitoyl-SGPGRGFGK [truncated, palmitoylated SHH EP (9aa, residues 24–32)], for which the Kd in test [2] came out at 3.72 µM.
